Laboratory results from US20220175781A1, “CD40L COMPOSITIONS AND METHODS FOR TUNABLE REGULATION” (Obsidian Therapeutics, Inc., priority 2019, published 2022).

What was measured:
[1] = tested on: T cells (CD4 and CD8 positive); test: Bazedoxifene dose response, CD40L MFI in CD4 and CD8 positive T cells (day 4, freeze/thaw, restimulation); assay type: cell-based
Protocol: Dose response with Bazedoxifene in T cells were conducted for OT-001966, OT-001967, OT-001666. Expression of CD40L was measured at (a) day 4 after transduction, (b) after freezing and thawing the cells or (c) after freezing and thawing the cells followed by restimulation with CD3/CD28 beads. The CD40L MFI (median fluorescence intensity) within CD4 and CD8 positive subpopulations is shown in Table 34 and Table 35 respectively.

[2] = tested on: T cells; test: Dose response of TMP, Bazedoxifene or Raloxifene, % CD40L positive T cells; assay type: cell-based; details: T cells
Protocol: T cells were transduced with OT-001662 or OT-001666. On day 4, cells were treated with increasing doses of TMP for T cells expressing OT-001662. Cells expressing OT-001666 were treated either with increasing concentrations of Bazedoxifene or Raloxifene. The data are shown in Table 30 as the percentage of CD40L positive T cells.

B1: OT-001666 (Met; ER (305-549 of WT, L384M, N413D, M421G, G521R, Y537S); Histidine; CD40L; stop) (ligand)
chain: MSLALSLTADQMVSALLDAEPPILYSEYDPTRPFSEASMMGLLTNLADRELVHMINWAKRVPGFVDLTLHDQVHLLECAWMEILMIGLVWRSMEHPGKLLFAPNLLLDRDQGKCVEGGVEIFDMLLATSSRFRMMNLQGEEFVCLKSIILLNSGVYTFLSSTLKSLEEKDHIHRVLDKITDTLIHLMAKAGLTLQQQHQRLAQLLLILSHIRHMSNKRMEHLYSMKCKNVVPLSDLLLEMLDAHRLHMIETYNQTSPRSAATGLPISMKIFMYLLTVFLITQMIGSALFAVYLHRRLDKIEDERNLHEDFVFMKTIQRCNTGERSLSLLNCEEIKSQFEGFVKDIMLNKEETKKENSFEMQKGDQNPQIAAHVISEASSKTTSVLQWAEKGYYTMSNNLVTLENGKQLTVKRQGLYYIYAQVTFCSNREASSQAPFIASLCLKSPGRFERILLRAANTHSSAKPCGQQSIHLGGVFELQPGASVFVNVTDPSQVSHGTGFTSFGLLKL
CD40L expression (MFI) ([1]; CD4+ cells, Day 4, Bazedoxifene 0.01 nM): 372 | CD40L expression (MFI) ([1]; CD4+ cells, Day 4, Bazedoxifene 0.1 nM): 420 | CD40L expression (MFI) ([1]; CD4+ cells, Day 4, Bazedoxifene 1 nM): 427 | CD40L expression (MFI) ([1]; CD4+ cells, Day 4, Bazedoxifene 10 nM): 476 | CD40L expression (MFI) ([1]; CD4+ cells, Day 4, Bazedoxifene 100 nM): 732 | CD40L expression (MFI) ([1]; CD4+ cells, Day 4, Bazedoxifene 1000 nM): 1397 | CD40L expression (MFI) ([1]; CD4+ cells, Day 4, Bazedoxifene 10000 nM): 1274 | CD40L expression (MFI) ([1]; CD4+ cells, Post Thaw, Bazedoxifene 0.01 nM): 134 | CD40L expression (MFI) ([1]; CD4+ cells, Post Thaw, Bazedoxifene 0.1 nM): 138 | CD40L expression (MFI) ([1]; CD4+ cells, Post Thaw, Bazedoxifene 1 nM): 145 | CD40L expression (MFI) ([1]; CD4+ cells, Post Thaw, Bazedoxifene 10 nM): 162 | CD40L expression (MFI) ([1]; CD4+ cells, Post Thaw, Bazedoxifene 100 nM): 208 | CD40L expression (MFI) ([1]; CD4+ cells, Post Thaw, Bazedoxifene 1000 nM): 241 | CD40L expression (MFI) ([1]; CD4+ cells, Post Thaw, Bazedoxifene 10000 nM): 537 | CD40L expression (MFI) ([1]; CD4+ cells, Restim, Bazedoxifene 0.01 nM): 592 | CD40L expression (MFI) ([1]; CD4+ cells, Restim, Bazedoxifene 0.1 nM): 658 | CD40L expression (MFI) ([1]; CD4+ cells, Restim, Bazedoxifene 1 nM): 682 | CD40L expression (MFI) ([1]; CD4+ cells, Restim, Bazedoxifene 10 nM): 658 | CD40L expression (MFI) ([1]; CD4+ cells, Restim, Bazedoxifene 100 nM): 953 | CD40L expression (MFI) ([1]; CD4+ cells, Restim, Bazedoxifene 1000 nM): 1688 | CD40L expression (MFI) ([1]; CD4+ cells, Restim, Bazedoxifene 10000 nM): 1577 | CD40L expression (MFI) ([1]; CD8+ cells, Day 4, Bazedoxifene 0.01 nM): 165 | CD40L expression (MFI) ([1]; CD8+ cells, Day 4, Bazedoxifene 0.1 nM): 171 | CD40L expression (MFI) ([1]; CD8+ cells, Day 4, Bazedoxifene 1 nM): 172 | CD40L expression (MFI) ([1]; CD8+ cells, Day 4, Bazedoxifene 10 nM): 176 | CD40L expression (MFI) ([1]; CD8+ cells, Day 4, Bazedoxifene 100 nM): 313 | CD40L expression (MFI) ([1]; CD8+ cells, Day 4, Bazedoxifene 1000 nM): 601 | CD40L expression (MFI) ([1]; CD8+ cells, Day 4, Bazedoxifene 10000 nM): 404 | CD40L expression (MFI) ([1]; CD8+ cells, Post Thaw, Bazedoxifene 0.01 nM): 103 | CD40L expression (MFI) ([1]; CD8+ cells, Post Thaw, Bazedoxifene 0.1 nM): 105 | CD40L expression (MFI) ([1]; CD8+ cells, Post Thaw, Bazedoxifene 1 nM): 107 | CD40L expression (MFI) ([1]; CD8+ cells, Post Thaw, Bazedoxifene 10 nM): 117 | CD40L expression (MFI) ([1]; CD8+ cells, Post Thaw, Bazedoxifene 100 nM): 170 | CD40L expression (MFI) ([1]; CD8+ cells, Post Thaw, Bazedoxifene 1000 nM): 213 | CD40L expression (MFI) ([1]; CD8+ cells, Post Thaw, Bazedoxifene 10000 nM): 326 | CD40L expression (MFI) ([1]; CD8+ cells, Restim, Bazedoxifene 0.01 nM): 238 | CD40L expression (MFI) ([1]; CD8+ cells, Restim, Bazedoxifene 0.1 nM): 244 | CD40L expression (MFI) ([1]; CD8+ cells, Restim, Bazedoxifene 1 nM): 263 | CD40L expression (MFI) ([1]; CD8+ cells, Restim, Bazedoxifene 10 nM): 253 | CD40L expression (MFI) ([1]; CD8+ cells, Restim, Bazedoxifene 100 nM): 354 | CD40L expression (MFI) ([1]; CD8+ cells, Restim, Bazedoxifene 1000 nM): 567 | CD40L expression (MFI) ([1]; CD8+ cells, Restim, Bazedoxifene 10000 nM): 458 | % CD40L positive T cells, dose response ([2]; increasing concentrations of Bazedoxifene): dose dependent increase | Raloxifene dependent expression ([2]; increasing concentrations of Raloxifene): observed only at the 1 μM dose
